Measurements reported in the supplement of paper PMC7877785.
± gives the uncertainty stated by the source.

Assay: self-splicing fitness, log relative to wild type (ln ratio); higher = more splicing; Tetrahymena group I intron in knt gene, E. coli kanamycin selection, DiMSum; sequences stand for … in CUCUCU…GGAGGGAAAAGUUAUCAGGCAUGCACCUGGUAGCUAGUCUUUAAACCAAUAGAUUGCAUCGGUUUAAAAGGCAAGACCGUCAAAUUGCGGGAAAGGGGUCAACAGCCGUUCAGUACCAAGUCUCAGGGGAAACUUUGAGAUGGCCUUGCAAAGGGUAUGGUAAUAAGCUGACGGACAUGGUCCUAACCACGCAGCCAAGUCCUAAGUCAACAGAUCUUCUGUUGAUAUGGAUGCAGUUCACAGACUAAAUGUCGGUCGGGGAAGAUGUAUUCUUCUCAUAAGAUAUAGUCGGACCUCUCCUUAAUGGGAGCUAGCGGAUGAAGUGAUGCAACACUGGAGCCGCUGGGAACUAAUUUGUAUGCGAAAGUAUAUUGAUUAGUUUUGGAGUACUCGUGGUCG
In short: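 Pooled colonies went to amplicon sequencing on an Illumina HiSeq 2500 after six replicate transformations. The plates were LB agar with 100 μg/mL carbenicillin, 50 μM IPTG and 0.2% rhamnose, with or without 25 μg/mL kanamycin, incubated overnight at 37°C or 30°C. The E. coli BL21(DE3) library had all eight P1ex-region intron nucleotides randomised, the intron placed in the knt kanamycin-resistance gene on pET-22b(+). DiMSum fitness is the error-weighted combination of replicate fold changes, kanamycin against none, normalised to wild type.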

Sequence	self-splicing fitness (ln) (30 °C)	self-splicing fitness (ln) (37 °C)
UGCCAGCAAUAUUACGAUGU	-4.66 ± 0.26	-1.34 ± 0.15
UGCCAGCAAUAUUACGCAAG	-3.07 ± 0.24	-3.65 ± 0.46
UGCCAGCAAUAUUACGCCCU	-1.49 ± 0.11	-0.167 ± 0.13
UGCCAGCAAUAUUACGCCGC	-2.25 ± 0.23	-1.49 ± 0.22
UGCCAGCAAUAUUACGCUGU	-3.59 ± 0.37	-1.37 ± 0.17
UGCCAGCAAUAUUACGGAGA	-1.47 ± 0.096	-0.852 ± 0.098
UGCCAGCAAUAUUACGGAGC	-3.73 ± 0.4	-3.1 ± 0.35
UGCCAGCAAUAUUACGGAGG	-3.51 ± 0.17	-1.83 ± 0.17
UGCCAGCAAUAUUACGGCAA	-1.4 ± 0.079	-1.52 ± 0.085
UGCCAGCAAUAUUACGGCGU	-3.04 ± 0.16	-3.16 ± 0.27
UGCCAGCAAUAUUACGGUAU	-3.55 ± 0.16	-2 ± 0.19
UGCCAGCAAUAUUACGGUCU	-0.21 ± 0.059	0.456 ± 0.07
UGCCAGCAAUAUUACGUACC	-3.09 ± 0.22	-1.98 ± 0.21
UGCCAGCAAUAUUACGUAUG	-1.2 ± 0.069	-0.775 ± 0.095
UGCCAGCAAUAUUACGUCAA	-1.93 ± 0.11	-1.08 ± 0.093
UGCCAGCAAUAUUACGUCGA	-1.17 ± 0.088	-0.949 ± 0.11
UGCCAGCAAUAUUACGUGGC	-3.24 ± 0.19	-3.19 ± 0.25
UGCCAGCAAUAUUACGUGGU	-3.85 ± 0.21	-2.83 ± 0.19
UGCGAGCAAUAUUACGAAUC	-4.3 ± 0.43	-2.41 ± 0.23
UGCGAGCAAUAUUACGACCA	-0.371 ± 0.18	–
UGCGAGCAAUAUUACGACUG	-0.639 ± 0.17	-0.0696 ± 0.2
UGCGAGCAAUAUUACGAGAU	-2.4 ± 0.33	-3.21 ± 0.35
UGCGAGCAAUAUUACGAGGA	-3.56 ± 0.18	-2.75 ± 0.18
UGCGAGCAAUAUUACGAUGU	-3.53 ± 0.13	-2.97 ± 0.18
UGCGAGCAAUAUUACGAUUG	-2.09 ± 0.1	-1.35 ± 0.16

Sequence	self-splicing fitness (ln) (30 °C)	self-splicing fitness (ln) (37 °C)
UGCGAGCAAUAUUACGCAAU	-3.57 ± 0.18	-2.72 ± 0.14
UGCGAGCAAUAUUACGCACU	-1.68 ± 0.27	-1.66 ± 0.24
UGCGAGCAAUAUUACGGACU	–	-1.12 ± 0.34
UGCGAGCAAUAUUACGGAGU	–	-2.08 ± 0.3
UGCGAGCAAUAUUACGGGGC	-3.09 ± 0.27	–
UGCGAGCAAUAUUACGGUCA	-0.764 ± 0.071	-0.397 ± 0.077
UGCGAGCAAUAUUACGGUUC	-2.75 ± 0.28	–
UGCGAGCAAUAUUACGUCAU	-4.84 ± 0.46	-2.95 ± 0.23
UGCGAGCAAUAUUACGUCGA	-2.22 ± 0.16	-1.85 ± 0.2
UGCGAGCAAUAUUACGUCGC	-1.88 ± 0.15	-2.32 ± 0.23
UGCGAGCAAUAUUACGUGAA	–	-2.32 ± 0.16
UGCGAGCAAUAUUACGUGCG	-2.56 ± 0.27	-0.202 ± 0.3
UGCGAGCAAUAUUACGUUAU	–	-3.11 ± 0.4
UGCGAGCAAUAUUACGUUGC	–	-1.17 ± 0.33
UGCUAGCAAUAUUACGAAAC	-2.87 ± 0.33	-2.17 ± 0.31
UGCUAGCAAUAUUACGACAC	-3.83 ± 0.22	-2.11 ± 0.16
UGCUAGCAAUAUUACGAGCU	-0.987 ± 0.068	-0.622 ± 0.082
UGCUAGCAAUAUUACGAGUC	-3.43 ± 0.26	-2.5 ± 0.28
UGCUAGCAAUAUUACGAUUU	-2.4 ± 0.18	-1.1 ± 0.16
UGCUAGCAAUAUUACGCCUG	-0.427 ± 0.18	0.294 ± 0.2
UGCUAGCAAUAUUACGCGUU	-1.7 ± 0.14	-0.563 ± 0.14
UGCUAGCAAUAUUACGCUAA	-1.85 ± 0.13	-1.55 ± 0.16
UGCUAGCAAUAUUACGGACC	0.158 ± 0.22	-1.06 ± 0.22
UGCUAGCAAUAUUACGGCCA	-0.186 ± 0.11	-0.178 ± 0.15
UGCUAGCAAUAUUACGGGAU	-3.68 ± 0.19	-1.76 ± 0.14

Sequence	self-splicing fitness (ln) (30 °C)	self-splicing fitness (ln) (37 °C)
UGCUAGCAAUAUUACGGGCU	-2.57 ± 0.13	-1.89 ± 0.14
UGCUAGCAAUAUUACGGUGG	-1.94 ± 0.066	-1.33 ± 0.086
UGCUAGCAAUAUUACGUAAA	-1.9 ± 0.094	-1.6 ± 0.13
UGCUAGCAAUAUUACGUAAG	-2.3 ± 0.19	-1.35 ± 0.18
UGCUAGCAAUAUUACGUCAC	-3.62 ± 0.19	-2.74 ± 0.22
UGCUAGCAAUAUUACGUCCA	-0.211 ± 0.06	-0.404 ± 0.09
UGCUAGCAAUAUUACGUCCC	-3.34 ± 0.18	-0.521 ± 0.12
UGCUAGCAAUAUUACGUUAU	-2.22 ± 0.16	-2.33 ± 0.23
UGCUAGCAAUAUUACGUUUG	-1.48 ± 0.074	-0.163 ± 0.092
UGGAAGCAAUAUUACGAGAA	-2.05 ± 0.43	-1.73 ± 0.3
UGGAAGCAAUAUUACGAGCG	0.103 ± 0.11	0.127 ± 0.15
UGGAAGCAAUAUUACGAUAG	-2.51 ± 0.2	-0.419 ± 0.17
UGGAAGCAAUAUUACGAUUC	-3.18 ± 0.3	–
UGGAAGCAAUAUUACGCAAC	-3.31 ± 0.32	-2.05 ± 0.27
UGGAAGCAAUAUUACGCUGU	-2.58 ± 0.41	-2.3 ± 0.49
UGGAAGCAAUAUUACGCUUA	-1.39 ± 0.13	0.125 ± 0.15
UGGAAGCAAUAUUACGGAUG	-0.948 ± 0.098	-0.832 ± 0.12
UGGAAGCAAUAUUACGGCGC	-1.23 ± 0.22	-0.241 ± 0.22
UGGAAGCAAUAUUACGGGGA	-2.19 ± 0.15	-2.16 ± 0.16
UGGAAGCAAUAUUACGUACU	-0.516 ± 0.094	-0.023 ± 0.098
UGGAAGCAAUAUUACGUCCU	-0.91 ± 0.2	-0.584 ± 0.21
UGGAAGCAAUAUUACGUGGC	-3.41 ± 0.25	-2.71 ± 0.33
UGGAAGCAAUAUUACGUUGA	-2.36 ± 0.17	-2.01 ± 0.2
UGGCAGCAAUAUUACGAACA	-0.346 ± 0.11	0.139 ± 0.13
UGGCAGCAAUAUUACGACAU	-1.746 ± 0.014	-0.812 ± 0.033

Sequence	self-splicing fitness (ln) (30 °C)	self-splicing fitness (ln) (37 °C)
UGGCAGCAAUAUUACGACCG	-0.969 ± 0.27	-0.245 ± 0.42
UGGCAGCAAUAUUACGACGA	-0.192 ± 0.12	-0.159 ± 0.14
UGGCAGCAAUAUUACGAGCA	-0.315 ± 0.098	-0.218 ± 0.12
UGGCAGCAAUAUUACGAGUG	-1.19 ± 0.11	0.196 ± 0.12
UGGCAGCAAUAUUACGAUCG	0.335 ± 0.067	1.02 ± 0.1
UGGCAGCAAUAUUACGCACG	-1.22 ± 0.18	0.284 ± 0.19
UGGCAGCAAUAUUACGCCUG	-1.24 ± 0.097	-0.681 ± 0.13
UGGCAGCAAUAUUACGCGGU	-2.54 ± 0.16	-2.62 ± 0.31
UGGCAGCAAUAUUACGCUGA	-2.79 ± 0.21	-1.17 ± 0.12
UGGCAGCAAUAUUACGCUUA	-0.68 ± 0.088	0.67 ± 0.1
UGGCAGCAAUAUUACGCUUU	-1.24 ± 0.076	-0.763 ± 0.1
UGGCAGCAAUAUUACGGAGA	-2.9 ± 0.42	-1.46 ± 0.41
UGGCAGCAAUAUUACGGCAC	-2.27 ± 0.25	-1.17 ± 0.16
UGGCAGCAAUAUUACGGCAU	-1.18 ± 0.083	-0.388 ± 0.092
UGGCAGCAAUAUUACGGUAC	-2.66 ± 0.2	-2.01 ± 0.31
UGGCAGCAAUAUUACGGUCA	-2.12 ± 0.18	-1.58 ± 0.15
UGGCAGCAAUAUUACGGUCG	-0.881 ± 0.083	0.133 ± 0.13
UGGCAGCAAUAUUACGGUUA	-0.000429 ± 0.076	0.0782 ± 0.092
UGGCAGCAAUAUUACGGUUC	-2.14 ± 0.2	-0.624 ± 0.19
UGGCAGCAAUAUUACGUAAG	-0.674 ± 0.049	0.00441 ± 0.073
UGGCAGCAAUAUUACGUACU	0.384 ± 0.091	0.181 ± 0.12
UGGCAGCAAUAUUACGUAGC	-4.18 ± 0.29	-2.28 ± 0.19
UGGCAGCAAUAUUACGUAGU	-2.99 ± 0.15	-1.8 ± 0.2
